In patent US20030143735A1 (University of Pennsylvania, published 2003):

Target: T1, HIV-1 p55gag precursor polyprotein (HIV-1, UniProt P04591 1-500)
T1 construct: In vitro translated control protein
Experiment: coimmunoprecipitation of 35S-labeled in vitro translated proteins, SDS-PAGE

B1: human Vpr Interacting Protein (hVIP), 35S-labeled, in vitro translated (other)
chain: MHARAAASVMDICRIRLDHAVSMSTFFFFLSSGMEVDAAVVPSVMACGVTGSVSVALHPLVILNISDHWIRMRSHQGRPVQVIGALIGKQEGRNIEVMNSFELLSHTVEEKIIIDKEYYYTKEEQFKQVFKELEFLGWYTTGGPPDPSDIHVHKQCCEIIESPLFLKLNPMTKHTDLPVSVFESVIDIINGEATMLFAELTYTLATEEAERIGVDHVARMTATGSGENSTVAEHLIAQHSAIKMLHSRVKLILEYVKASEAGEVPFNHEILREAYALCHCLPVLSTDKFKTDFYDQCNDVGLMAYLGTITKTCNTMNQFVNKFNVLYDRQGIGRRMRGLFF
modifications: 35S radiolabel
notes: In vitro translated hVIP of the coimmunoprecipitation assay; Anti-Express antibody was among the antibodies used, so it may have
binding result: no binding
